Data published in article PMC2805716, “Critical Structural and Functional Roles for the N-Terminal Insertion Sequence in Surfactant Protein B Analogs” (PLoS ONE, 2010).
Each block holds one molecule with its values, some of them ahead of it.

Tests used:
[1] = tested on: surfactant-deficient animal models; conditions: ref [34]–[37]; cited from earlier work
Source text: (§1) Previous structural and functional studies with synthetic peptides representing the N- and C-terminal regions of SP-B further support the hypothesis that these charged amphipathic helices participate in surfactant activities. […] The cationic N-terminus of SP-B may here interact with anionic lipids to remove the driving force for lipid squeeze-out from the surface film, [32]. In additional studies, SP-B(1–25 ...

[2] = lipid monolayers containing palmitic acid; ref [31], [32]; cited from earlier work
Source text: as §1

[3] = ESR, ref [30], cited from earlier work
Source text: Although the “10 nsec” MD simulation of dimer S-MB provides a reasonable framework to account for our SDS-PAGE and SPR results (Figs. 8 and 10), it is worthwhile to consider other structural models by which the N-terminal insertion sequence may promote the self-association of S-MB. One possible alternative is that oligomeric S-MB may be due to the N-terminal sequence (residues 1-7) forming β-sheet. The N-terminal SP-B(1–9) (Fig. 2) was earlier proposed to act as a ‘biochemical Velcro®,’ facilitating in vivo either the aggregation of SP-B or the interactions of SP-B with SP-C [50]. In support ...

[4] = molecular target: T1, Cys-MB (Mini-B with a cysteine added to its N-terminus, chip-linked) (human); assay: SPR; Biacore 3000; Cys-MB or Cys-S-MB linked to a thiol chip; MB or S-MB at 1 µg peptide/ml in HBS-EP (10 mM Hepes, pH 7.4, 150 mM NaCl, 3 mM EDTA, 0.005% surfactant P20) flowed over at 50 µl/min, 37°C; constants from curve fitting at the one concentration; conditions: both partners purified
T1 construct: cysteine added to the N-terminus to link the peptide to the thiol Biacore chip; surfactant protein B (SP-B), human, residues 8-25; numbers count on: the mature protein (79 residues); surfactant protein B (SP-B), human, residues 63-78; Immobilised on the SPR chip; also called chipped MB; N-terminal Cys-MB
T1 chain: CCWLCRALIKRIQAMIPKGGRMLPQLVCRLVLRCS

[5] = molecular target: T2, Cys-S-MB (Super Mini-B with a cysteine added to its N-terminus, chip-linked) (human); assay: as above; conditions: both partners purified
T2 construct: cysteine added to the N-terminus to link the peptide to the thiol Biacore chip; surfactant protein B (SP-B), human, residues 1-25; numbers count on: the mature protein (79 residues); surfactant protein B (SP-B), human, residues 63-78; Immobilised on the SPR chip; also called chipped S-MB; N-terminal Cys-S-MB
T2 chain: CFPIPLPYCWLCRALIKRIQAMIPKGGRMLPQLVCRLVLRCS

[6] = molecular target: the molecule itself; assay: SDS-PAGE; 4 µg peptide in 8 µl buffer (50 mM MOPS, 50 mM Tris, pH 7.7, 0.1% SDS, 1 mM EDTA), neither heated nor reduced; 16% acrylamide gel; Coomassie blue and silver staining; molecular weight markers 2.5-16.9 kDa

Molecule: SP-B(1–25): synthetic peptide based on the N-terminal domain of SP-B, residues 1–25 (FPIPLPYCWLCRALIKRIQAMIPKG; Pulmonary surfactant-associated protein B; UniProt P07988 201-225, looked up, fragment)
oxygenation and lung compliance [1]: improved oxygenation and lung compliance
collapse pressure of lipid monolayers [2]: increase the collapse pressure
aggregation ([3]; PBS, spin-labeled at Phe-1): primarily aggregated in PBS
aggregation upon addition of SDS micelles ([3]; SDS micelles added): addition of SDS micelles rapidly dissociated these SP-B(1–25) aggregates

Kd [4]: 52.1 nM
koff [4]: 0.00736 s⁻¹
kon [4]: 141000 M⁻¹ s⁻¹
Kd [5]: 20.1 nM
koff [5]: 0.000901 s⁻¹
kon [5]: 44700 M⁻¹ s⁻¹
B1: Super Mini-B (peptide)
chain: FPIPLPYCWLCRALIKRIQAMIPKGGRMLPQLVCRLVLRCS
notes: numbers count on: the mature protein (79 residues); surfactant protein B (SP-B), human, residues 63-78 (C-terminal helix region); the split into the two SP-B stretches follows the stated ranges (1-7 plus 8-25, and 63-78); Oxidised form with intramolecular disulfides Cys-8 to Cys-40 and Cys-11 to Cys-34; also called S-MB; SMB; source: synthetic peptide (Fmoc solid phase, HPLC-purified, …)
stoichiometry N [6]: 2
